Results reported in patent publication US20190211317A1, “PEPTIDES AND NANOPARTICLES FOR INTRACELLULAR DELIVERY OF GENOME-EDITING MOLECULES” (Aadigen, LLC, priority 2016, published 2019).
Non-standard residues stand in square brackets, D forms with d. No end group written: not given here. βAla = NCCC(=O)O

Target: CY5 fluorescently labeled CAS9 protein (S. pyogenes), Q99ZW2
Assay: fluorescence titration of 5 nM CY5-CAS9 with increasing peptide, quadratic fit
Conditions: remark: other sources report otherwise

Chain of CY5 fluorescently labeled CAS9 protein (S. pyogenes), Q99ZW2 (Q99ZW2 whole entry): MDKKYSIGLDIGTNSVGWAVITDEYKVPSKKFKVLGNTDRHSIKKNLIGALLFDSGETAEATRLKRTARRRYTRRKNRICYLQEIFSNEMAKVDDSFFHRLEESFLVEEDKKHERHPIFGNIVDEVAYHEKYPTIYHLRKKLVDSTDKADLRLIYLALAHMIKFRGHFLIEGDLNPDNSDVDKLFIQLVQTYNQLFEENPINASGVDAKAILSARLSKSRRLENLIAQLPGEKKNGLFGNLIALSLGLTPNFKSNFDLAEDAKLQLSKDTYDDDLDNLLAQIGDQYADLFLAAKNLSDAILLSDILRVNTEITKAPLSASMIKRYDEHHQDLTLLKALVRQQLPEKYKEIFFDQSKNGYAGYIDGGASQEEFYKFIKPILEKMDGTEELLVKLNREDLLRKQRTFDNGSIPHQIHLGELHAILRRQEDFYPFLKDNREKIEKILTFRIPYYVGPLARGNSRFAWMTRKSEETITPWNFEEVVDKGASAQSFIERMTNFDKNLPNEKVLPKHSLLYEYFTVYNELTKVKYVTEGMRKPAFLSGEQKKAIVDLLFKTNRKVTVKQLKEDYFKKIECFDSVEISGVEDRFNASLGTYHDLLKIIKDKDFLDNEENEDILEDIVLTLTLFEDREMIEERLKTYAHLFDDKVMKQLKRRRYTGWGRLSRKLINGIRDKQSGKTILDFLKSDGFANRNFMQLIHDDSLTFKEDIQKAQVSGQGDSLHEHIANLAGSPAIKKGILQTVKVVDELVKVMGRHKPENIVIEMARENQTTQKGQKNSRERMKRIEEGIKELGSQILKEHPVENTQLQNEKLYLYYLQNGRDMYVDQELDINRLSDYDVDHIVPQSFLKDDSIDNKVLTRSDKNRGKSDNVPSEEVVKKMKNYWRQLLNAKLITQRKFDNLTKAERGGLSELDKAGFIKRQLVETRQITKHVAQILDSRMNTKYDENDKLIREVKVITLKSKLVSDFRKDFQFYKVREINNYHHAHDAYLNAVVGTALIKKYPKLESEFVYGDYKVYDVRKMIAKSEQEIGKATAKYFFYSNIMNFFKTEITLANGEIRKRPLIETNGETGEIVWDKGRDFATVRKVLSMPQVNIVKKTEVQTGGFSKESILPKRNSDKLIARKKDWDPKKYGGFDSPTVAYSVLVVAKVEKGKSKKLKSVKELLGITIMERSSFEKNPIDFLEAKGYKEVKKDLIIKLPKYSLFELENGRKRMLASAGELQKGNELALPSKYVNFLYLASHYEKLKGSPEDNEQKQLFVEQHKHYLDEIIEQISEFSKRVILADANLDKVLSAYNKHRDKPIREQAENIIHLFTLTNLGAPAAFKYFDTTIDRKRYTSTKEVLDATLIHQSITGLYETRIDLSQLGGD

Row | Binder | Kd
1 | GLWRALWRLLRSLWRLLWKV (also: acetate salt) [CADY] | > 100 nM
2 | [βAla]LWRALWRLWRSLWRLLWKA (also: acetate salt) [VEPEP-6] | > 100 nM
